# Legend:
# [1] = biological target: sLif, soluble form of Pseudomonas aeruginosa lipase-specific foldase Lif that lacks the transmembrane domain (TMD) (Pseudomonas aeruginosa); experiment: other fluorescence titration; sLif / sLif_(Y99A) labelled with BDP FL (1.2 nM label, total about 24 nM) with 0-50 uM LipA overnight at 4 °C in 10 mM glycine buffer pH 9; steady-state anisotropy and average translational diffusion time (FCS) on a confocal microscope (sLif_(Y99A): diffusion time only); 1:1 binding model; apparent KD
# [2] = biological target: sLif_(Y99A), variant of soluble P. aeruginosa Lif with Y99 mutated to alanine (Pseudomonas aeruginosa); experiment: as above
substance,measurement,setting,value
"lipase LipA of Pseudomonas aeruginosa, pre-active form refolded in vitro (enzyme)",Kd,[1],0.029 µM
same,Kd,[2],0.077 µM
